Experimental data as given in publication PMC4189797, “Mycoplasma synoviae enolase is a plasminogen/fibronectin binding protein” (BMC Veterinary Research, 2014).

Test system: O=C(O)[C@@H](CO)OP(=O)(O)O
Assay: purified protein
Conditions: 100 mM HEPES, 7.7 mM KCl, 10 mM MgCl2, pH 7.5, 30°C, 2-PGA 0.5, 1.5 and 2.0 mM

rMsEno (recombinant M. synoviae enolase) (Mycoplasmopsis synoviae 53)
Km: 1100 µM
